Laboratory results reported in US7550429B2, “Glycoproteins having lipid mobilising properties and therapeutic applications thereof” (Aston University, priority 1998, dated 2009).

Key:
[1] = test system: murine epididymal adipocytes; assay: Lipolytic assay: glycerol release from isolated adipocytes; type: cell-based, mouse; conditions: for Lipid mobilizing activity, glycerol released: 5 μg human or 10 μg mouse LMF, incubated overnight at 4° C. with or without pAb 10 μg, mean±SEM, three determinations; for Stimulation of glycerol release (lipolysis): different doses, freshly isolated murine epididymal adipocytes, FIG. 9; for Specific activity: purified product after final stage HPLC Resource-iso
Method: Single cell suspensions of white adipocytes were prepared from finely minced epididymal fat pads of male BKW mice using collagenase digestion, substantially as described by S. A. Beck et al. (see above-mentioned reference 14). Samples to be assayed were incubated with 10^5-2×10^5 adipocytes (determined by means of a haemocytometer) for 2 h at 37° C. in 1 ml of Krebs-Ringer bicarbonate buffer, pH 7.2. The concentration of glycerol released was determined enzymatically by the method of Wieland as referred to above (see also GB2217330A). Control samples containing adipocytes alone were analyzed to determine the spontaneous glycerol release. Lipid mobilizing activity was expressed as μmol glycerol released/10^5 adipocytes/2 h.

[2] = test system: ex-breeder male NMRI mice; assay: In vivo fat depletion, iv LMF in ex-breeder male NMRI mice; design: species or system mouse
Method: (§1) Non-esterified fatty acids (NEFA) were determined using a Wako-ASC-ACOD kit (Wako Chemical GmbH, Neuss, Germany). Triglycerides were determined using a Triglyceride kit (Sigma Chemical Co., Poole, United Kingdom) and 3-hydroxybutyrate by a quantitative enzymatic determination kit (Sigma). Glucose was measured using a glucose analyser (Beckman, Irvine, Calif.) and glycerol was determined enzymatically using the method of Wieland as described in “Methods of Enzymatic Analysis” (Ed. Bergmeyer, H. U.) Vol. 3, pp 1404-1409, published by Academic Press, London (1974) (reference 13).
FIG. 10 is a diagram showing change in body weight of ex-breeder male NMRI mice (30-40 g) produced by intravenous (iv) administration of LMF (8 μg) isolated from human urine as described in Example 2 (o) and of control mice administered PBS by iv injection (x).
In order to determine if the purified LMF isolated from human urine as in Example 2 was capable of fat depletion in vivo a sample of this LMF material ([…]) was injected into male ex breeder NMRI mice over a 72 h period. The LMF was injected at times 0, 17, 24, 41, 48, 62 and 72 hours and control mice were similarly injected with phosphate-buffered saline (PBS) at the same time points. The animals were killed at 89 h and the body composition and serum metabolite levels were determined. […] Changes in the body composition and serum metabolic levels are summarised in Table 5 and it will be seen that total body weight decreased by 3.6 g during the overall 89 h period of the experiment without change in food and water intake. […] Despite the fat mobilisation there were significant reductions in the serum concentrations of non-esterified fatty acids (NEFA), glycerol and glucose in mice receiving LMF.

[3] = test system: murine adipocyte plasma membrane adenylate cyclase; assay: Adenylate cyclase assay with adipocyte plasma membranes; type: biochemical, mouse; conditions: GTP-dependent stimulation
Method: In a typical procedure white adipocytes were isolated from mouse epididymal fat pads as referred to above except that the cells were washed in 250 mM sucrose, 2 mM ethyleneglycol bis(β-aminoethylether)-N,N,N′,N′ (EGTA), 10 mM Tris-HCl (pH 7.4). Adipocytes were resuspended in 20 ml of the above buffer and homogenised by aspirating through a Swinny filter at least 10 times. The cell homogenate was then centrifuged at 300 g for 5 min, the fat cake removed from the surface and the remaining pellet and infranatant transferred to clean tubes. These were centrifuged at 30,000 g for 1 h at 4° C. and the membrane pellet formed was resuspended in the sucrose buffer (200 to 400 μl). Plasma membranes were separated from other organelle membranes on a self-forming gradient of Percoll™ colloidial silica particles. […]
An adenylate cyclase assay used was based on that developed by Salomon et al. (reference 16). […] Background binding was determined by running samples without [α-^32P] […]
Samples containing labelled nucleotides were diluted to 1 ml with water and loaded onto Dowex™ 50W8-400 ion-exchange columns primed with 10 ml of water. […] The radioactivity was determined using a Tri-carb™ 2000A scintillation analyser.

ob/ob mice = assay: In vivo effect of iv LMF in obese ob/ob mice; design: species or system mouse
Method: as §1
FIG. 11 is a diagram similar to FIG. 10 showing change in body weight of ob/ob mice produced by iv administration of LMF (35 μg) (o) isolated from human urine as described in Example 2 and of control mice (x) administered PBS by iv injection. LMF was injected at times 0, 16, 24, 40, 48, 64, 72, 90, 96, 113, 120, 137 and 144 h; PBS was injected at the same time points. The animals were killed 160 h after the first injection. Results are expressed as mean±SEM for 5 animals per group.
As shown in FIG. 11 and by the data in Table 6, intravenous administration to obese ob/ob mice of LMF (35 μg) isolated from human urine produced a similar result. There was a decrease in total body weight which became significant within 24 h of the first injection and remained below that of the control group over the 160 h of the experiment.

[4] = LMF 8 μg iv over 72 h, killed at 89 h
[5] = LMF 35 μg iv, 160 h after first injection

B1: Human LMF: 43 kDa glycoprotein lipid mobilising factor purified from urine of cachectic cancer patients (Example 2); Zn-α2-glycoprotein type (protein, UniProt P25311 21-298, looked up)
Zinc-alpha-2-glycoprotein: QENQDGRYSLTYIYTGLSKHVEDVPAFQALGSLNDLQFFRYNSKDRKSQPMGLWRQVEGMEDWKQDSQLQKAREDIFMETLKDIVEYYNDSNGSHVLQGRFGCEIENNRSSGAFWKYYYDGKDYIEFNKEIPAWVPFDPAAQITKQKWEAEPVYVQRAKAYLEEECPATLRKYLKYSKNILDRQDPPSVVVTSHQAPGEKKKLKCLAYDFYPGKIDVHWTRAGEVQEPELRGDVLHNGNGTYQSWVVVAVPPQDTAPYSCHVQHSSLAQPLVVPWEAS
- Lipid mobilizing activity, glycerol released [1]: 0.0062 ± 0.0002 μmole glycerol/10^5 adipocytes/2 h
- Stimulation of glycerol release (lipolysis) [1]: stimulated glycerol release with a comparable dose-response profile
- Specific activity [1]: 164.3 μmol/10^5 adipocytes/mg protein
- Effect of α-chymotrypsin digestion on in vitro biological activity ([1]; α-chymotrypsin digestion): chymotrypsin destroyed the in vitro biological activity
- Food intake ([2]; LMF 8 μg iv over 72 h): 8.0 ± 0.2 g/day
- Water intake ([2]; LMF 8 μg iv over 72 h): 4.4 ± 0.4 mL/day
- Body composition: Fat [2, 4]: 3.4 ± 0.4 g
- Body composition: Non Fat [2, 4]: 9.6 ± 0.9 g
- Body composition: Water [2, 4]: 18.3 ± 0.8 g
- Serum Glucose [2, 4]: 186 ± 0.08 mg/100 ml
- Serum Glycerol [2, 4]: 6.73 ± 0.45 mM
- Serum NEFA [2, 4]: 0.95 ± 0.03 mEq/l
- Final body weight ([2]; LMF 8 μg iv, 7 injections over 72 h, killed at 89 h, mean±SEM, 5 mice): 31.6 ± 2.2 g
- Time until body weight significantly lower than PBS treated controls ([2]; LMF iv, FIG. 10): ≤ 41 h
- Reduction in body fat content ([2]; body composition analysis at 89 h): 42%
- Decrease in total body weight ([2]; overall 89 h period, no change in food and water intake): 3.6 g
- GTP concentration at maximal stimulation of adenylate cyclase [3]: 0.1 µM
- Final body weight (ob/ob mice; LMF 35 μg iv, 13 injections over 144 h, 160 h after first injection, mean±SEM, 5 mice): 69.5 ± 4.3 g
- Body composition: Fat (ob/ob mice; [5]): 30.6 ± 0.7%
- Body composition: Non Fat (ob/ob mice; [5]): 17.4 ± 1.0%
- Body composition: Water (ob/ob mice; [5]): 53.7 ± 1.1%
- Glucose (ob/ob mice; [5]): 260 ± 12 mg/100 ml
- Oxygen uptake (ob/ob mice; [5]): 0.55 ± 0.07 μl/mgBAT/h
- Serum 3-Hydroxybutyrate (ob/ob mice; [5]): 0.44 ± 0.01 mM
- Serum Glycerol (ob/ob mice; [5]): 5.31 ± 0.45 mM
- Serum NEFA (ob/ob mice; [5]): 1.45 ± 0.45 mEq/l
- Carcass fat (ob/ob mice; LMF 35 μg iv, body composition analysis at 160 h): 21.09 ± 0.99 g
- Time until decrease in total body weight became significant (ob/ob mice; after the first injection, FIG. 11): ≤ 24 h
- Initial body weight (ob/ob mice; baseline before first injection): 67.9 ± 2.9 g

B2: Zn-α2-glycoprotein (protein, listed as Homo sapiens)
chain: QENQDGRYSLTYIYTGLSKHVEDVPAFQALGSLNDLQFFRYNSKDRKSQPMGLWRQVEGMEDWKEDSQLQKAREDMETLKDIVEYYNDSNGSHVLQGRFGCEIENNRSSGAFWKYYYDGKDYIEFNKEIPAWVPFDPAAQITKQKWEAEPVYVQRAKAYLEEECPATLRKYLKYSKNILDRQDPPSVVVTSHQAPGEKKKLKCLAYDFYPGKIDVHWTRAGQVQEPELRGDVLHNGNGTYQSWVVVAVPPQDTAPYSCHVQHSSLAQPLVVPWEAS
notes: Zn-α2-glycoprotein purified about 670-fold from fresh human plasma by the method of Ohkubo et al
- Stimulation of glycerol release (lipolysis) [1]: stimulated glycerol release with a comparable dose-response profile
- GTP concentration at maximal stimulation of adenylate cyclase [3]: 0.1 µM

B3: Mouse LMF: 43 kDa glycoprotein lipid mobilising factor purified from murine adenocarcinoma MAC16 (Example 1) (protein, UniProt Q64726 18-307, looked up)
Zinc-alpha-2-glycoprotein: QETGSYYLTFLYTGLSRPSKGFPRFQATAFLNDQAFFHYNSNSGKAEPVGPWSQVEGMEDWEKESQLQRAREEIFLVTLKDIMDYYKDTTGSHTFQGMFGCEITNNRSSGAVWRYAYDGEDFIEFNKEIPAWIPLDPAAANTKLKWEAEKVYVQRAKAYLEEECPEMLKRYLNYSRSHLDRIDPPTVTITSRVIPGGNRIFKCLAYGFYPQRISLHWNKANKKLAFEPERGVFPNGNGTYLSWAEVEVSPQDIDPFFCLIDHRGFSQSLSVQWDRTRKVKDENNVVAQPQ
- Lipid mobilizing activity, glycerol released [1]: 0.0977 ± 0.02 μmole glycerol/10^5 adipocytes/2 h
- Specific activity [1]: 50 μmol/10^5 adipocytes/mg protein
